Measurements published in patent publication US6010851A, “Method for producing nucleoside-5'-phosphate ester” (Ajinomoto Co., Inc., priority 1995, dated 2000).

Columns and labels:
[1] = Properties of the purified acid phosphatase derived from Escherichia blattae; set-up: species or system Escherichia blattae JCM 1650
Protocol: A nutrient medium (pH 7.0, 50 ml) containing 1 g/dl of peptone, 0.5 g/dl of yeast extract, and 1 g/dl of sodium chloride was poured into Sakaguchi flasks (500 ml), which was sterilized at 120° C. for 20 minutes. A slant culture of Escherichia blattae JCM 1650 was inoculated to each of the flasks once with a platinum loop, which was cultivated at 30° C. for 16 hours with shaking. Microbial cells were harvested from a culture by centrifugation. The microbial cells (about 3,300 g) were suspended in 100 mM potassium phosphate buffer (1 L, pH 7.0). A ultrasonic treatment was performed at 4° C. for 20 minutes to disrupt the microbial cells. The treated suspension was centrifuged to remove its insoluble fraction. Thus a cell-free extract was prepared.
The purified enzyme had the following properties.

[2] = Phosphomonoesterase activity (inosine produced by hydrolysis of 5'-inosinic acid); type: biochemical; details: purified Escherichia blattae enzyme
Protocol: The phosphomonoesterase activity was measured under the following condition using 5'-inosinic acid as a substrate. The reaction was performed at 30° C. for 10 minutes in a reaction solution (1 ml) containing 10 μmol/ml of 5'-inosinic acid, 100 μmol/ml of MES/NaOH buffer (pH 6.0), and an enzyme. The reaction was stopped by adding 200 μl of 2 N hydrochloric acid. After that, precipitates were removed by centrifugation. Then, inosine produced by the hydrolytic reaction was quantitatively measured. An amount of enzyme to produce 1 μmol of inosine per 1 minute under this standard reaction condition was defined as 1 unit.
Inosine and 5'-inosinic acid were analyzed under the following condition by means of high-performance liquid chromatography (HPLC).

B1: acid phosphatase derived from Escherichia blattae: enzyme purified from cell-free extract of Escherichia blattae JCM 1650; mature protein SEQ ID NO: 11 (protein)
chain: LALVATGNDTTTKPDLYYLKNSEAINSLALLPPPPAVGSIAFLNDQAMYEQGRLLRNTERGKLAAEDANLSSGGVANAFSGAFGSPITEKDAPALHKLLTNMIEDAGDLATRSAKDHYMRIRPFAFYGVSTCNTTEQDKLSKNGSYPSGHTSIGWATALVLAEINPQRQNEILKRGYELGQSRVICGYHWQSDVDAARVVGSAVVATLHTNPAFQQQLQKAKAEFAQHQKK
[1]
  Optimum temperature: about 35 °C
[1]; phosphate ester hydrolytic reaction
  Optimum pH: 6.5
[1]; transphosphorylation reaction
  Optimum pH: 5.2
[1]; treatment at pH 7.0 for 30 minutes
  Temperature stability: up to 40 °C
[2]
  phosphate ester hydrolytic activity (phosphomonoesterase activity) relative to transphosphorylation activity: not less than 30 times
